Substrate in this data set: CC(=O)C(=O)O
Kind of data set: purified protein. Format: biochemical, Escherichia coli. Particulars: 37 °C, pyruvate (1–90 mM) as donor and acceptor, no D-GAP.

B1: DXP synthase (Escherichia coli K-12) (protein)
chain: SFDIAKYPTLALVDSTQELRLLPKESLPKLCDELRRYLLDSVSRSSGHFASGLGTVELTVALHYVYNTPFDQLIWDVGHQAYPHKILTGRRDKIGTIRQKGGLHPFPWRGESEYDVLSVGHSSTSISAGIGIAVAAEKEGKNRRTVCVIGDGAITAGMAFEAMNHAGDIRPDMLVILNDNEMSISENVGALNNHLAQLLSGKLYSSLREGGKKVFSGVPPIKELLKRTEEHIKGMVVPGTLFEELGFNYIGPVDGHDVLGLITTLKNMRDLKGPQFLHIMTKKGRGYEPAEKDPITFHAVPKFDPSSGCLPKSSGGLPSYSKIFGDWLCETAAKDNKLMAITPAMREGSGMVEFSRKFPDRYFDVAIAEQHAVTFAAGLAIGGYKPIVAIYSTFLQRAYDQVLHDVAIQKLPVLFAIDRAGIVGADGQTHQGAFDLSYLRCIPEMVIMTPSDENECRQMLYTGYHYNDGPSAVRYPRGNAVGVELTPLEKLPIGKGIVKRRGEKLAILNFGTLMPEAAKVAESLNATLVDMRFVKPLDEALILEMAASHEALVTVEENAIMGGAGSGVNEVLMAHRKPVPVLNIGLPDFFIPQGTQEEMRAELGLDAAGMEAKIKAWLA
Turning to B1, the K0.5 amounted to 51.0 ± 1.7 mM.

These data come from paper PMC3494461.
